In the supplement of paper PMC12042874:
± gives the uncertainty stated by the source.

Assay: amyloid nucleation score (Sup35N fusion, yeast selection) (log enrichment); library NNK3; higher = more nucleation; inactive = no reads after selection
How it was run: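 The nucleation score is a DiMSum log enrichment of output over input reads, centred on the mode score of non-aggregating sequences. Sequences under 100 input reads were excluded, and reads came from Illumina sequencing of plasmid inserts. Psi-negative yeast expressing Sup35N fused to peptides of 20 random codons were induced with 100 μM copper sulfate for 24 hours and grown 7 days at 30°C on medium lacking adenine and uracil. Random libraries had three technical output replicates.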

| Substance | amyloid nucleation score |
| --- | --- |
| DAFIGYHYLGGLISGIWSSR | 0.693 ± 0.097 |
| RCNISTRFLLLWTFSFLLVY | inactive |
| MPMCT | inactive |
| SWIVRLWCVMWNNLFVFIRN | inactive |
| YLGIFWRFFLRFSRGVTVWL | -0.488 ± 0.96 |
| KRMSKKALRLVVSYFSPS | inactive |
| LVVCKLRV | inactive |
| RGGTASQVFMCFKLVFRSRY | -0.14 ± 0.6 |
| TVTVPG | inactive |
| CYVIILVRL | inactive |
| GPSWVTHESRKCTCQARDKV | inactive |
| NSLMYFRGKFLFSIYNCYVH | inactive |
| FGCCKRCRHNRVSKEFSWSC | inactive |
| AVMDGRNMSYSMYIRCCMWL | 2.7 ± 0.074 |
| RLFFVSMAF | inactive |
| PTILWAQYAGWGSKVWPPRL | inactive |
| YHCAFVSINSECMVDGLTLC | 0.883 ± 0.15 |
| LRYNRDVTS | inactive |
| SSVEHWPQNVFNRYFLYGVY | inactive |
| SWTSVSFRRMLMDSSR | inactive |
| TRLLAGFSWYVTFPVNVSGS | inactive |
| VGYVFFGFPVLKYARQESLS | inactive |
| SPKAVSCNTFPIGYRISFFL | inactive |

| Substance | amyloid nucleation score |
| --- | --- |
| STVKVSLYQNQYPNGFNS | 1.66 ± 0.089 |
| SSGLFLSISLNDGWSRGVWS | 2.77 ± 0.076 |
| PGKYGLV | inactive |
| HSMALITSSRVLVRVLTIMR | inactive |
| RDFTSYGCFVASSSLDRSFL | inactive |
| TVRASFGYNLRNWCSTVVVE | inactive |
| IDVLV | inactive |
| RASMYG | inactive |
| FCALALTQMLINMAH | inactive |
| VSFEYTGEYLCSNVRATDLL | 0.366 ± 0.69 |
| QVRNSDRFSCIGSANIRKSL | inactive |
| IVRDFLAGPIKHSTFEVIDF | inactive |
| LDGQFNNLYMYPSFYQEVAG | inactive |
| ANGRN | inactive |
| NLHAEWMDGSTGRKIAWNNG | inactive |
| AGVDWQILV | inactive |
| KLVATVFTSRCATVWLVQGF | inactive |
| YPLLEPSRVLVVCDGKGGVP | inactive |
| RRTMSSLFFKFDLH | inactive |
| VLFSFAMLFKACLACFISCV | inactive |
| ISGEQRYSKCRT | inactive |
| AVTFTHRFSRISPCHRRRWK | 1.16 ± 0.1 |
| VDEFFGRGVHWLTVRLGLGM | inactive |

| Substance | amyloid nucleation score |
| --- | --- |
| LALCSTCFNLVYIICVGKKW | inactive |
| GIVRSVCYVNGCVLDHEVGI | inactive |
| VPTVLDRFDMMHVSEYRDGA | inactive |
| EMLCVDYWTFGYMVLREVTI | inactive |
| CVLAFVVVLLGWGHSSGAGG | 0.825 ± 0.2 |
| GSLRNPVSGRLENVGGRAWG | inactive |
| YLNISGWSYFNCTRSWLLNR | inactive |
| IPIVRTLNLLASTLTPLCR | inactive |
| YYCTM | inactive |
| SNLVDGMSWHHFKERIVMLD | inactive |
| VMSGAKPARSLFLSTLQHIS | inactive |
| KYKLTLYDNAVSGGDALHLR | inactive |
| EFAEMHTAVLVERISSKVII | inactive |
| LYDLTGPVSNLTISLLNVEY | inactive |
| NWKLPGFPNLVQRITTDSPL | inactive |
| ASMLALCVLMHRLEPIRSFN | 0.64 ± 0.2 |
| WYRFPCFFLYCDAWMILNFA | inactive |
| PTNTNCLNVLG | inactive |
| KQKMYTAVPKGIQNILEA | inactive |
| KGGDELYFEELDEWSQGSRR | inactive |
| DISSLR | inactive |
| QCRHPGSRP | inactive |
| ELEYAHVIRGKKRCHSSRVV | inactive |

| Substance | amyloid nucleation score |
| --- | --- |
| MQFLRYSLPSDNRLPGCFL | inactive |
| VIILTYVSMLTTAHINGWSG | 0.309 ± 0.29 |
| FWGWLARTNLKILSILFNLI | inactive |
| SSSSMFALLPICY | inactive |
| PGLIVF | inactive |
| FNAYNIFVKVPNVMPSS | 2.19 ± 0.09 |
| LLLPWCYFRRKMGRR | inactive |
| RYLLPQIPLLYKWKLLILHG | inactive |
| SWYDHWSLIQDGLKRVNGG | inactive |
| ESTGMPTALYSLAVTVRVDK | 0.016 ± 0.33 |
| SWPSASSFDSR | inactive |
| MINVPSVSYTMSSVIYTSFK | 2.39 ± 0.055 |
| CDVCNM | inactive |
| YDLGIGNKHVRYLWGPARKK | inactive |
| SHGHDSVTRNRQGPCGIRIY | inactive |
| FFLNGVCDCLRIPCTNVYLY | inactive |
| SYSSDWVLLGGMFFAKY | 0.164 ± 0.56 |
| LLDIC | inactive |
| YRWSPWYNYCSSWTWCQMST | 1.51 ± 0.13 |
| LSLWMGVEDFVLCGSVNTSR | inactive |
| VFEVEPNLGIGYSAKACNVG | inactive |
| HNLNLDGLMSKSSFTPMVLL | inactive |
| LGSGEATE | inactive |

| Substance | amyloid nucleation score |
| --- | --- |
| SVSPCSTHFLMSFERYVRGT | inactive |
| IYTFSCDIYCNMSFCLWFDN | 2 ± 0.088 |
| FVAVVSRDISNYSRGRSEKR | inactive |
| CYLNQSKYAARWNCGDNKME | inactive |
| MLAGWSQFYGISRYLPENPV | inactive |
| FWLRAVSLSWLMIEKKYMLR | inactive |
| VVRVHIRCTAFYKAPSYWGS | 0.987 ± 0.11 |
| KCFISYR | inactive |
| VDNNHYQRKSKGFGVAGLIR | inactive |
| SIPLLTQMWTVNGNRRWQTA | inactive |
| MGHSDNGEDTSTWLCDRRVV | inactive |
| YFCGAVEESERLRGMEGNPD | 0.84 ± 0.2 |
| NFCLMLDVWINTFRDIIYWG | inactive |
| CDVPAKYLGKICDSYALSIF | inactive |
| VRNLVHHPYAFL | inactive |
| RLNVYTYAKFRRHRCKATSW | inactive |
| LSGSRTRSRFPDCLNCIS | inactive |
| WIVFMGDASCLSLLTWELFC | 1.25 ± 0.095 |
| CYSLFSLPMKALRSISVRCW | 1.52 ± 0.13 |
| YWQDGQ | inactive |
| LYVATS | inactive |
| VKWKDVDLFGLC | inactive |
| CSRSAENNFMMNLLNTIRVL | inactive |

| Substance | amyloid nucleation score |
| --- | --- |
| VCFRNAFFHCSQMRTCNRVI | 0.262 ± 0.74 |
| YSVTAHPLDHTNPRGNYPDH | inactive |
| KAVVLGEWTRSFCSLDFNI | inactive |
| NRRNLSLFECLSSTGVSRVN | inactive |
| SLCRRWVNLDTGSPYGTL | inactive |
| IGMMYVIGIYLIGGNYSIR | inactive |
| YRDRIGWQVVISII | -0.087 ± 0.27 |
| RSVRFFVKMINFFASY | 1.04 ± 0.15 |
| VISGVIVMWYAWMWAGYRVR | inactive |
| CDTSFKIDELPYSASLHFAF | inactive |
| VHGPKNCWKCDFKER | inactive |
| QSMWH | inactive |
| QCVRSMLEELRIGYKVHRQS | inactive |
| LDMFHSEIIFLMWYRGWVNA | inactive |
| LWRLRAIWVNNVMAVRKFVG | -0.68 ± 1 |
| INVSLGHAGEGWVWLALHLR | inactive |
| RWRIEEPTI | inactive |
| VCSFDMRDLQKTE | inactive |
| LSFFGSYSSSRLF | 1.43 ± 0.11 |
| MFCDLINESSHCCEATLECN | inactive |
| NNVGPAFHDAC | inactive |
| KLFVVHSREGEFIFSI | inactive |
| RKYVTRCASMMVHHYAYDTR | inactive |

| Substance | amyloid nucleation score |
| --- | --- |
| IGVIWRFVLWSGPRTDSQVS | inactive |
| IILRFDGFTMSSPRNLVIDG | inactive |
| TKSYFRINMFAVLDRCGLCR | inactive |
| AWTIRGQA | inactive |
| TWLSFIRLNMMPINTSTCYP | inactive |
| LNLGIFV | inactive |
| IEAMRNRWSFKY | inactive |
| WRRWQSRCGSLLRYSKETLN | inactive |
| LGRCFVFMRTVCFDSA | inactive |
| SDYLRMVVTYPQTLLYQGTK | inactive |
| ILDFDFTSLPNMMRGCRSHL | inactive |
| GFGQATTCLSLNSACF | 0.544 ± 0.18 |
| VTFIRQGLEIVSVVLSICKE | inactive |
| KSVYMHTGPGKGNRVVEKCM | inactive |
| TIYVLCGRTIRWFVLNPLQE | inactive |
| MLNVINVYHVSSCGLRGNFE | 2.63 ± 0.077 |
| MIRMIMLSRSDRPGVSRKLD | inactive |
| ANGLLSFSGRADGLQTNSGC | inactive |
| IVVCAQTLHSLGPRPIEPTQ | inactive |
